Data from article PMC9882231 (bioRxiv, 2023).
Where “and” joins values, the source holds several entries; their conditions need not be identical. Equal entries are not always repeated.

B1: Ndl1^CC (Ndl1 coiled-coil domain, residues 2-132) (domain or fragment)
chain: VPNLDLETAIQIISSLETQLSELEGATKEYENDLEQVISKLKSDLLESQQQNKCNKKQITDLEIQVDELENENIQLRNKIETLQLESDRRLERNVLLEHELLDTKEALQKLRVSKEEATSGETRRNTRSLP
B2: Ndel1^CC (human Ndel1 coiled-coil domain, residues 1-195), as used in Figure 4 (domain or fragment)
chain: MDGEDIPDFSSLKEETAYWKELSLKYKQSFQEARDELVEFQEGSRELEAELEAQLVQAEQRNRDLQADNQRLKYEVEALKEKLEHQYAQSYKQVSVLEDDLSQTRAIKEQLHKYVRELEQANDDLERAKRATIVSLEDFEQRLNQAIERNAFLESELDEKESLLVSVQRLKDEARDLRQELAVRERQQEVTRKSA

Key:
[1] = target: yeast dynein complex, wild-type (WT) (S. cerevisiae, UniProt P36022;P40960;Q04949;Q02647, HaloTag or SNAP ligand dye on the tag); assay: TIRF microscopy microtubule recruitment assay
yeast dynein complex, wild-type (WT), sequence (P36022 whole entry, chain 1 of 4): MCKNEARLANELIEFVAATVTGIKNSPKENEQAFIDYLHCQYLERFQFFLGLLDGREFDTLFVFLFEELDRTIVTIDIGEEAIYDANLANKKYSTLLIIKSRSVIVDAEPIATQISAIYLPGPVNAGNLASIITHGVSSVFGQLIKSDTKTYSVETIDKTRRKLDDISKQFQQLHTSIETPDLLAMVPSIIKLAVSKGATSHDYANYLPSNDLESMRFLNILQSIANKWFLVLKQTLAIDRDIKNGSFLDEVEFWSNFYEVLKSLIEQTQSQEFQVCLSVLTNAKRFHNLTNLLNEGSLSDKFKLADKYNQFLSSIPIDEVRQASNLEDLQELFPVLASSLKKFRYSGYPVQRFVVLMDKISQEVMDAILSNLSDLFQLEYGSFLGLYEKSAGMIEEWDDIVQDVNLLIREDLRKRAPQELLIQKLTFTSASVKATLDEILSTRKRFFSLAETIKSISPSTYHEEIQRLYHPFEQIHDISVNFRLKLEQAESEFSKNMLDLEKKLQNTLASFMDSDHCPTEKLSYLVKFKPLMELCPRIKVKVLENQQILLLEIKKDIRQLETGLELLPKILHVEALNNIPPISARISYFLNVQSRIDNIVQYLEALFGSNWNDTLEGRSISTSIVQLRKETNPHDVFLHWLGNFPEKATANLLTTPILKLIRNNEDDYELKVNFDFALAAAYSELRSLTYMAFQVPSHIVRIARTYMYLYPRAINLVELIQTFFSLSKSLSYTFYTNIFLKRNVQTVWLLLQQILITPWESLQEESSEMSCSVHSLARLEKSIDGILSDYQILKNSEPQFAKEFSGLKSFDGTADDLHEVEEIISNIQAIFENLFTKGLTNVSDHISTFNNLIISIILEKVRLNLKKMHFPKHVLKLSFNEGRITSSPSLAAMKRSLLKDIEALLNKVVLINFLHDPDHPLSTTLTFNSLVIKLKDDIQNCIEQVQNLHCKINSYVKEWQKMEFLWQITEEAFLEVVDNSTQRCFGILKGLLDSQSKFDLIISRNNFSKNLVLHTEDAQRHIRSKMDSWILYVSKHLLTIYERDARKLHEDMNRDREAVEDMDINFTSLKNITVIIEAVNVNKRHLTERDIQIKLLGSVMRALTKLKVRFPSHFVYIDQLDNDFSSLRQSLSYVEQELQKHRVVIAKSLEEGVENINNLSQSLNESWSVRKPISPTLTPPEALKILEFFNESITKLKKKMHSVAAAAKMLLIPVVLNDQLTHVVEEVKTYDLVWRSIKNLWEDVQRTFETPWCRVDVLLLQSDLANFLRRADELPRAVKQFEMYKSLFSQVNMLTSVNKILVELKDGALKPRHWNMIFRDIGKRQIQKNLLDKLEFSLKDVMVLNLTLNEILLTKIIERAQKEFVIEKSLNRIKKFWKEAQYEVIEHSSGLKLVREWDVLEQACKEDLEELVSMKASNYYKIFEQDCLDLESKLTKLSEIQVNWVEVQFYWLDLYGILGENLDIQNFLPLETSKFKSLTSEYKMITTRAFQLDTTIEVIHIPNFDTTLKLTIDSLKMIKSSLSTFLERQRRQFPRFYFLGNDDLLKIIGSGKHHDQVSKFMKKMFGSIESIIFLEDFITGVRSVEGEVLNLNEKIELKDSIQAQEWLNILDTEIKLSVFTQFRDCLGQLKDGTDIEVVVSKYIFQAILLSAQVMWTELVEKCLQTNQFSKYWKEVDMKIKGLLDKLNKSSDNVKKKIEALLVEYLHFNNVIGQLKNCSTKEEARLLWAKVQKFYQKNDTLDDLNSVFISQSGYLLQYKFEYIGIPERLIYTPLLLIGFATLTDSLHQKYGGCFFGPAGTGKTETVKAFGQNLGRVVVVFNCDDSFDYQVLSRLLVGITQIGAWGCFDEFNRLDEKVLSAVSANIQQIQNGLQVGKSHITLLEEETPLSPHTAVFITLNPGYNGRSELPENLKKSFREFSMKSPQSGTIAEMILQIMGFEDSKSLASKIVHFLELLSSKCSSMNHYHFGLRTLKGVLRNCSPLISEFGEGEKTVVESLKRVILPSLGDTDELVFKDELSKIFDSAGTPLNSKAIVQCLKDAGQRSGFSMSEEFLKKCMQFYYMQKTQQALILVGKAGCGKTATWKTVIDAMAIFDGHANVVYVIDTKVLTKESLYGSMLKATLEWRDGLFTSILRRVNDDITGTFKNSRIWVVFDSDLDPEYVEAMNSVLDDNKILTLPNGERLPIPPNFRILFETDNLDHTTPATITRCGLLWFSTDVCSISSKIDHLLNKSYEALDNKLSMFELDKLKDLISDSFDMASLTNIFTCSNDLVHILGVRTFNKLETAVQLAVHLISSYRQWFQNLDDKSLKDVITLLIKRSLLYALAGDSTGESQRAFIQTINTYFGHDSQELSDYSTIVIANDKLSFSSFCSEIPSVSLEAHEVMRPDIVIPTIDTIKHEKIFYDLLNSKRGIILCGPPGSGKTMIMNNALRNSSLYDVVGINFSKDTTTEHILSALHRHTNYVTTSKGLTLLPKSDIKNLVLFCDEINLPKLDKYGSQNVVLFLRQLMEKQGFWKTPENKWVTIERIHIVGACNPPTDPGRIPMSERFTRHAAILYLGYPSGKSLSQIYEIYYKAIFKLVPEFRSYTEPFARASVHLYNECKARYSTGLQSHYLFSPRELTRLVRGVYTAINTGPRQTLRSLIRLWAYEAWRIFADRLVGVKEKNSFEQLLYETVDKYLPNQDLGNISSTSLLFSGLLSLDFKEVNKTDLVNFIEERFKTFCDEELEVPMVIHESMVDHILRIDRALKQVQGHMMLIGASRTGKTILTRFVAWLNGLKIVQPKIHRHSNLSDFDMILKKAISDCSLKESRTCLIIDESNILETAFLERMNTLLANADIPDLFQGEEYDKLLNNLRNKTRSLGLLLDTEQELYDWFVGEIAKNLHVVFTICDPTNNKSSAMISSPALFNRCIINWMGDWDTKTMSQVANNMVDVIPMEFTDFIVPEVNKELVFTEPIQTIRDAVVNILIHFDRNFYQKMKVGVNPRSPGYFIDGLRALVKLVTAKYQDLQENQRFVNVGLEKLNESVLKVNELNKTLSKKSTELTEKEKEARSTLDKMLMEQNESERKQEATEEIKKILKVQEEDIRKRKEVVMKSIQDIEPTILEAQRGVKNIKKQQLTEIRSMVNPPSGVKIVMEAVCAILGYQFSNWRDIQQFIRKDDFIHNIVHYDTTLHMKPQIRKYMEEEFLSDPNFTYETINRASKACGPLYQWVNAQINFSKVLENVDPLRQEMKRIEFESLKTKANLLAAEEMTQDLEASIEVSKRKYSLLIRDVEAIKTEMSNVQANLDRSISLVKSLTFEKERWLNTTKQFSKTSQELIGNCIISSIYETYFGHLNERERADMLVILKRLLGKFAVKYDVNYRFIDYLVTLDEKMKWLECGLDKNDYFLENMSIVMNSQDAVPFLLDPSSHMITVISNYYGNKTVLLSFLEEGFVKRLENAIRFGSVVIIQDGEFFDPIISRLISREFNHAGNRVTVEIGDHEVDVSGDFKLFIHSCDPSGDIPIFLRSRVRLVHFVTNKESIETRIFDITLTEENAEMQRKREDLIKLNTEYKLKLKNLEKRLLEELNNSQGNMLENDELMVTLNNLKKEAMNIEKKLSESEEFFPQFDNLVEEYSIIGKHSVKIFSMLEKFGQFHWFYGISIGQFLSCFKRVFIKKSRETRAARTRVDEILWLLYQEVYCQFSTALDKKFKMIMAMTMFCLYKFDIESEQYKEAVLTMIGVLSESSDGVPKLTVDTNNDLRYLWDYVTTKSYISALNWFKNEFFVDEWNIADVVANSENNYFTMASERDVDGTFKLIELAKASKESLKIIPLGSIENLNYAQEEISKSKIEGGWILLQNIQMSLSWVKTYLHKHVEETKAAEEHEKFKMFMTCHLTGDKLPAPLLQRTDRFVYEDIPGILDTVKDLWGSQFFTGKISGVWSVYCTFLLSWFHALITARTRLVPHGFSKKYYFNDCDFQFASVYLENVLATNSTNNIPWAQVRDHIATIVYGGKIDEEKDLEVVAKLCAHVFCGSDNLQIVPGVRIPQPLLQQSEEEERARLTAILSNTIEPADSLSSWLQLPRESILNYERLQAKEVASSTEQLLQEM
yeast dynein complex, wild-type (WT), sequence (P40960 whole entry, chain 2 of 4): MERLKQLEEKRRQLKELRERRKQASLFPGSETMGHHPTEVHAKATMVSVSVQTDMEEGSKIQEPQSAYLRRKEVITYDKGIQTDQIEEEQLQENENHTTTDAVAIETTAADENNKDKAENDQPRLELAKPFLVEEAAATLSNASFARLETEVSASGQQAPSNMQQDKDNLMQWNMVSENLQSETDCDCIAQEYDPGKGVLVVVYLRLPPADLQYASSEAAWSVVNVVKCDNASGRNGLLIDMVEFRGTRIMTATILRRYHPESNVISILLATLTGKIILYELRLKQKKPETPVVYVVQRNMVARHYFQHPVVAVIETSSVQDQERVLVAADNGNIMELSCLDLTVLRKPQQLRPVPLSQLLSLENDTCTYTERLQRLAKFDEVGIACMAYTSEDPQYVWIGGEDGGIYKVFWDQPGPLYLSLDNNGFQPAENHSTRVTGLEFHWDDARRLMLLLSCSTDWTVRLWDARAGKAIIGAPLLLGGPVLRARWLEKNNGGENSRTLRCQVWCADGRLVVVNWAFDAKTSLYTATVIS
yeast dynein complex, wild-type (WT), sequence (Q04949 whole entry, chain 3 of 4): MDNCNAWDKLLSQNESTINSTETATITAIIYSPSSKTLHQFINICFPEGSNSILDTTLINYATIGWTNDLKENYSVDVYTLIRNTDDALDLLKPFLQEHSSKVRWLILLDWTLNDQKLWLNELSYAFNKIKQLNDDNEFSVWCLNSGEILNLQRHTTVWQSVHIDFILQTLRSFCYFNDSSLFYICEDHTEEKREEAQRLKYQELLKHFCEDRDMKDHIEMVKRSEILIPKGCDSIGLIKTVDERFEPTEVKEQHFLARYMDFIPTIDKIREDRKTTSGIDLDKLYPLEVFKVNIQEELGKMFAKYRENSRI
yeast dynein complex, wild-type (WT), sequence (Q02647 whole entry, chain 4 of 4): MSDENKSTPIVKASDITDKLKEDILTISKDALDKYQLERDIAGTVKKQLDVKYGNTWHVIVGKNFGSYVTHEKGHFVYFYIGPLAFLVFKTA

mass photometry = target: the molecule itself; assay: mass photometry
[2] = target: yeast dynein^ΔICN complex (S. cerevisiae, UniProt P36022;P40960;Q04949;Q02647, HaloTag or SNAP ligand dye on the tag); assay: TIRF microscopy microtubule recruitment assay
[3] = target: B1; assay: mass photometry
[4] = target: B2; assay: mass photometry

Binder	binding result [1]	stoichiometry N (mass photometry)	other results
B1	binds	2	–
Nip100^CC1 (Nip100 coiled-coil, residues 97-377) with eGFP (domain or fragment) EHSLLNGNAAQETIKNLQVKCESLASKLNKIKIENHELKTSVEKLSTNETVLLSKISRLDKLVKELKVENGNMKTHLDNFNHLLDASDSVMAPDLDKGTLLERSHLLQGLLDQTKLSYDKAMKVQEDLLEENTQLLEENAVLSKKISDLGLQLQQTNNTIGDLALQIEAQSKSSNIVDKLTNDNILLTSNIKALNNELEELQAKEKLDENLRITYEQLEQELRLQLSNLQSALENEKEIAGTYIEENSRLKATLESIEAKTSHKFQSLELKVNTLQEELYQ	binds	–	–
Ndl1, full-length, with C-terminal FLAG-SNAPf (natural protein, JFX554 or JFX650 SNAP-tag ligand on the SNAPf tag) MVPNLDLETAIQIISSLETQLSELEGATKEYENDLEQVISKLKSDLLESQQQNKCNKKQITDLEIQVDELENENIQLRNKIETLQLESDRRLERNVLLEHELLDTKEALQKLRVSKEEATSGETRRNTRSLPSQNKKMKLFKDTIKVSTTSSTLYLQNMAKTNNAARSHCNIPNTQITQSTVIATTSSV	binds	–	–
Pac1, full-length, with C-terminal FLAG-SNAPf (natural protein, SNAP-tag ligand dye on the SNAPf tag where labelled) MTNWQQQLPLTDTQKNELDKSVLRYLNWNYKQTVRHEHAQDYESVRHAIVTLSGFLLQESVDRQEFISNNDTSNESMVDIDELLLPKKWNSIVRLQKKIIELEQNTETLVSQIKDLNTQVSELAQFKPTTSNGTSAHNVLKWIPRNLPSCLINVESSVTSVKLHPNLPIVFVATDHGKLYAFDLFNYTIPLASLQSHTKAITSMDVLFTNYTNSSKKNYLVIVTASKDLQIHVFKWVSEECKFQQIRSLLGHEHIVSAVKIWQKNNDVHIASCSRDQTVKIWDFHNGWSLKTFQPHSQWVRSIDVLGDYIISGSHDTTLRLTHWPSGNGLSVGTGHEFPIEKVKFIHFIEDSPEIRFRTPSTDRYKNWGMQYCVSASRDRTIKIWEIPLPTLMAHRAPIPNPTDSNFRCVLTLKGHLSWVRDISIRGQYLFSCADDKSVRCWDLNTGQCLHVWEKLHTGFVNCLDLDVDFDSNVTPRQMMVTGGLDCKSNVFMR	binds	2	binding result [2]: binds; stoichiometry N [3]: 1 and 2 Pac1:Ndl1
B2	–	2	–
LIS1, wild-type (natural protein) MVLSQRQRDELNRAIADYLRSNGYEEAYSVFKKEAELDVNEELDKKYAGLLEKKWTSVIRLQKKVMELESKLNEAKEEFTSGGPLGQKRDPKEWIPRPPEKYALSGHRSPVTRVIFHPVFSVMVSASEDATIKVWDYETGDFERTLKGHTDSVQDISFDHSGKLLASCSADMTIKLWDFQGFECIRTMHGHDHNVSSVAIMPNGDHIVSASRDKTIKMWEVQTGYCVKTFTGHREWVRMVRPNQDGTLIASCSNDQTVRVWVVATKECKAELREHEHVVECISWAPESSYSSISEATGSETKKSGKPGPFLLSGSRDKTIKMWDVSTGMCLMTLVGHDNWVRGVLFHSGGKFILSCADDKTLRVWDYKNKRCMKTLNAHEHFVTSLDFHKTAPYVVTGSVDQTVKVWECR	–	–	stoichiometry N [4]: 1
